Laboratory results: paper PMC10497535, “Identification of the SNARE complex that mediates the fusion of multivesicular bodies with the plasma membrane in exosome secretion” (Journal of Extracellular Vesicles, 2023)

Assays:
[1] = molecular target: T1, recombinant SN-23, mutant of full-length human SNAP-23 (C79A, C80A, C83A, C85A, C87A, C112A) (human, UniProt O00161 1-211, C79A | C80A | C83A | C85A | C87A | C112A); assay: pull-down; 2 μM GST-VAMP-7 SNARE motif with 3 μM Syx-4 (1-274) and/or 3 μM SN-23 on glutathione Sepharose 4B, 4°C, 5 h; washed with 20 mM Tris-HCl pH 8.0, 150 mM NaCl, 1% Triton X-100; SDS-PAGE; details: both partners purified
T1 construct: SNAP-23, human, full length (residues 1-211) with six cysteines changed to alanine; Cloned into pET28a; source: E. coli BL21 DE3, purified (Nickel-NTA)
T1 sequence (looked up): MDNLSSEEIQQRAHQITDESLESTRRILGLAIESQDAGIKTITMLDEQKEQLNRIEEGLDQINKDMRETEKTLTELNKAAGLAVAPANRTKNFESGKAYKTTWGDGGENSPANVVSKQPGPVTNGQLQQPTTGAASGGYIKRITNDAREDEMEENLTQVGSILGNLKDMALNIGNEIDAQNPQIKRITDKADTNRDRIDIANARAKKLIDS

[2] = molecular target: T2, Syx-4 (residues 1-274, the cytoplasmic fragment) (human, UniProt Q12846 1-274); assay: as above; details: both partners purified
T2 construct: syntaxin-4, human, cytoplasmic fragment, residues 1-274; Cloned into pET28a; 'purified as previously described'; also called cytoplasmic fragment of Syx-4; source: E. coli BL21 DE3, purified (Nickel-NTA)

binding result [1]: binds
binding result [2]: binds
B1: GST-tagged VAMP-7 SNARE motif (residues 125-185) (domain or fragment, human, UniProt P51809 125-185, looked up)
chain: KVMETQAQVDELKGIMVRNIDLVAQRGERLELLIDKTENLVDSSVTFKTTSRNLARAMCMK
notes: pGEX-6p-1; PreScission-cleavable GST tag, not cleaved for the pull-down; also called GST-VAMP-7 SNARE motif; source: E. coli BL21 DE3, purified (glutathione Sepharose 4B, eluted with glutathione); not shown: GST, N-terminal, kept
